Results: the DeepSol protein solubility set

Test: soluble on expression in E. coli; label from the status in PepcDB or PDB records
In the case of “MLEKHWSKSLVDSFESSKNKPSNLNGKKYILSMFPYPSGRLHIGHMRVYTISDATARYYRLNGYEVIHPIGWDSFGLPAENAARDKGVDPREWTINNIESMKQQLLKTKILFDWEKEISTCEPEFFRWTQWIFCKLFEYGLVKRTSSEVNWDPIDKTVLAAEQIDNDGKSWRSGAKAEKKKLSQWMIETPKYAKRLQEGLRKMSEQWGEVADIQANWIGKCDVYRFMLPVMKDGSNDEIIDLRIKDIFEISNAEFLVLKQSHSLADKDATQFPYKLPFQVLNGVTGRQIPVIVVEDTYQPDVTSFLNSRIGNFQKDKILVEKFAIAEPKHKRKLTKNDIQEMASFGGYGGYETSRTLTDWVVSRQRGWGTPIPMIQTKDGKRVAVQLNKLPVLGSDRGQEVDKERFGESGVFDTDTLDTFFDSAWYYLRYLDNKNKSELISKGAMKNMPVDVYVGGIEHAAVHMFFARFVAYFLKDINVIQTAEPFTDLIPQGIVRGKTFIEKETGKYLGSEDVQQSGDKLTLKNDSSVEVDAVYEKMSKSKNNGVDLAAILDSEGVDMTRLRLLEAAAPRAPINWGETDLKGIKKLLDRIAAINSQIVDARDNGKPIELKKEIDGSIKETYNFFVRNVGMCLEVLHLHNTALMRIQGFTNALKKVDPIYLAHSPEGQRAVKSLIIMLQVFCPHVASEMWSALANDGSLVSDQKWPEVDKDADIEFLLMIDGVSGGRPSLDRRIIEEMSMDQLWERATFYEHADILRMMKEDGMKLKNSSYISRKGFHVTLSCSLEGDKEENRKKIGKILDRIQAEKRKLEIGKKGGKRKKEKKIVNK”, the “soluble on expression in E. coli” value was “not soluble”. In the case of “MNTFGTRLKFTSFGESHGVAVGCIIDGMPAGVKFDEEFLQNELDKRKGGSKFATPRKESDKAQVLSGVFEGYTTGHPIAIVVFNENAHSKDYDNLKDLFRPAHADFTYFYKYGIRDHRGGGRSSARESVARVAGGAVAAMLLREFDICVQSGVFGVGTFVSNLKEEEFDFEFAKKSEIFCLDPKLESDFKNEILNARNSKDSVGAAVFTKVSGMLIGLGEVLYDKLDSKLAHALMGINAVKAVEIGEGINASKMRGSCNNDALKDGKFLSNHSGGILGGISNGENLILKTYFKPTPSIFAKQESIDKFGNNLKFELKGRHDPCVGVRGSVVASAMVRLVLADCLLLNASANLNNLKNAYGLKLEHHHHHH”, the “soluble on expression in E. coli” value was “soluble”. With “SLAFVCLAIGCLYTFLISTTFGCTSSSDTEIKVNPPQDFEIVDPGYLGYMYLQWQPPLSLDHFKECTVEYELKYRNIGSETWKTIITKNLHYKDGFDLNKGIEAKIHTMLPWQCTNGSEVQSSWAETTYWIS” the “soluble on expression in E. coli” value was “soluble”. In the case of “MGHHHHHHSHELLVVGSRPELGRWEPRGAVRLRPAGTAAGDGALALQEPGLWLGEVELAAEEAAQDGAEPGRVDTFWYKFLKREPGGELSWEGNGPHHDRCCTYNENNLVDGVYCLPIGHWIEATGHTNEMKHTTDFYFNIAGHQAMHYSRILPNIWLGSCPRQVEHVTIKLKHELGITAVMNFQTEWDIVQNSSGCNRYPEPMTPDTMIKLYREEGLAYIWMPTPDMSTEGRVQMLPQAVCLLHALLEKGHIVYVHCNAGVGRSTAAVCGWLQYVMGWNLRKVQYFLMAKRPAVYI”, the “soluble on expression in E. coli” value was “not soluble”. For “LYVFDMDETLINADCAMIWNAFLVEKGIATQPNFIEEDQRLMALYAEGKMDMEDYLEFCMAPLADMPIAHVLMLVEECVEHHILPKQFEQSKTLIAQLDRDDIDMVIISASVTFLVEAVGRRLGIPVALGIDLVEKHGSYSAEIAGVPSYREGKVIRLKAWLDAQPESYSEVHFYTDSINDLPLCEYADYAYLVNPCPQLKARAD”, the “soluble on expression in E. coli” value was “not soluble”. For “MESDTSRTPYNSIYATLKNKKTDGEVVCCVHGRRCSYGKGNQDGKRDDNQYVNLPFLKNQDQIASKLTGKLNKLKIAEEKENKIVPREKPEMMSLNTLVEIARAGEQPRKGRGDKEKRTKKAPVLVDDSQLYVMIGPPSEHPGEPPASEPTETYKTNTIDESTFKGSEALSAYIGVVTLANAENHLTRRGEFALYHLFNPNGRLDTITDKLPLMIVYRTTTKKNRHYSIRTTCDQQFFVDCGYPNVRKHYSLSHLVMFYKTSATCEINPDDTSADSFSWWLE”, the “soluble on expression in E. coli” value was “not soluble”. With “DPQPDPLQPDVYLLVNARAAHTNGEESINMDAEDFEDRVHSLAMLVFDSNTGEKVAEHFSSSIGSGTSTYVFTVKLKPGQRD” the “soluble on expression in E. coli” value was “not soluble”. For “MSFRGTVKWFSKDKGYGFITREDTNADVFVHFTDIQMEGFKTLQKGQKVEFDVVEDTKGPRAKNVRVLGE”, the “soluble on expression in E. coli” value was “soluble”. In the case of “MSLRRILHMTEKKKKIGFNIVKNDSTDGHGGFGVGALSLENISPVFVDVLEKTAFVDIGAMHARSTVEKGIKFLTNKDEVPNGKPFWLVWVTIERTATGAYYAGVTACEMTVDREIRRGYKSLPEHVNKMDKSMKRHIMVDHMDESSKKVLGTFLKEHNEAIWNESGEELRRALLSEEGHHHHHH”, the “soluble on expression in E. coli” value was “soluble”. For “SLRSIMTPRGEISWVDAEQSEDEIRRQLLSSPHSLFPVCRGELDEIIGIVRAKEMLVALESGENVAALASASPAIVVPETLDPINLLGVLRRARGSFVIVTNEFGVVQGLVTPLDVLEAIAGEFPDADETPEIVIDGDGWLIKGSTDLHALQQALGLDPLINDDEDIATVAGLVISANGHIPRIGDVVSLPPLHFTVVEANDYRVDLVRAVVTRPPSDEEE”, the “soluble on expression in E. coli” value was “not soluble”. With “MSARLDAQIAFLKQADRLKSVERANVLLDLSRPENSAEHSWHLALWALVLSPFAAPDVDVDRAIRMLLLHDLVEIETGDHPIHEVTDWQAVERAERAAARKLFGLLPPDQAADFHTLWTEFDADETADARYAKMLDRCQPMFQVLCADTPRPDHVEVVRENLSSGRAAYLAEAFPEAHAHARALLERHPPVTGGFGDRLEFLAEADRLKTVLRASRLMDDSRFENSAEHSWHIMLYAWVLGEYAAAPVDIDRVLRMLLLHDLVEIDAGDNPIHGNVDHAAQEALEAAAAERLFGLLPPDQGAGLRAIWQEFETAQSADALFGKAVDRVQTPIANLENGGGSWVTYDVSLQQLVARVGTPVSRGAPGLWDWLFPQLSDCFTRLGLRLLEHHHHHH” the “soluble on expression in E. coli” value was “soluble”. With “MHHHHHHQYKLALNGKTLKGETTTEAVDAATAEKVFKQYANDNGVDGEWTYDDATKTFTVTEGSQWQPQLQQLRDMGIQDDELSLRALQATGGDIQAALELIFAGGAP” the “soluble on expression in E. coli” value was “soluble”. With “MGSDKIHHHHHHMTAATSVRAQAREEDLSVKEILDSRWFQPEMFKTLDYVKGFVGAKVIFQMLKLGVFDDLLAGKTLEEIASGRSLDPYLLRTVFEYLSVEGLLVKEGRGGGASFRLSDYGSRIKHYEGWFNILIGGYDNIFSNIGAMLEEGIGGYKRDGKWVGVGSCQISKYDTIPITKAFIESVKPDAKQIVDFGCGNALYLCTLAKELGDIKAVGIEPDTSAYEAGLKKVAEMGLQDQVRLVNVDALDYEIDEQPDFILFGFVLQEIIAQIGRPAFIEYLRKLGRKFADSYLMVMEVDYDIDNREVMHSPMGRGYYNPYFLLHPFTNQLLLPKREWDEIFAQAGYDVVRDEVTSPKADPSGFGICYVLKYRGAHC” the “soluble on expression in E. coli” value was “not soluble”. For “MSLRHVRERGVLVATLQRLAEQDPLTGIANRQGFQALLNARLAENEGRGVALGHLDLDNFRHVNDALGHQSGDRLILQVVARLKHQLEAGDQLARLGSDEFALLIDTRRDANRAEWIAERIVEALAEPYWIDGESLLLGCSLGIAHARAQSGADPLMWHAHIAMRQAKGSQGCTFHVFNERINRNARSLADLESELRRALRRDELELHYQPRLNLADGRIVGLEALVRWRHAERGLLPPSEFVPLAEQSGLIVPLGYWVISRALRDMQALCERGLEPLHMAVNLSFRQFQDSQLLATLSRLILEHGVDARWLEFELTETAVMRRNEVVRQTMDALGRLGVRFSLDDFGTGFSSFVHLNSLPITLLKVDRSFVAEMEMREENRKLVHAMINLAHNLNLEVVAEGVESEEQLTLLRGFGCDQVQGFLVSRPLPIGELMAYLLQAPGRQLEGEGHHHHHH”, the “soluble on expression in E. coli” value was “soluble”. For “MHKVSATLLIIDDDEVVRESLAAYLEDSNFKVLQALNGLQGLQIFESEQPDLVICDLRMPQIDGLELIRRIRQTASETPIIVLSGAGVMSDAVEALRLGAADYLIKPLEDLAVLEHSVRRALDRAYLRVENQRYRDKLEAANRELQASLNLLQEDQNAGRQVQMNMLPVTPWSIEGLEFSHRIIPSLYLSGDFVDYFRVDERRVAFYLADVSGHGASSAFVTVLLKFMTTRLLYESRRNGTLPEFKPSEVLAHINRGLINTKLGKHVTMLGGVIDLEKNSLTYSIGGHLPLPVLFVEGQAGYLEGRGLPVGLFDDATYDDRVMELPPSFSLSLFSDGILDVLPGATLKEKEASLPEQVAAAGGTLDGLRQVFGLANLAEMPDDIALLVLSRNLA”, the “soluble on expression in E. coli” value was “soluble”. In the case of “GPHMGGSMFSWLKKGGARGQRPEAIRTVTSSLKELYRTKLLPLEEHYRFGSFHSPALEDADFDGKPMVLVAGQYSTGKTSFIQYLLEQEVPGSRVGPEPTTDCFVAVMHGETEGTVPGNALVVDPEKPFRKLNPFGNTFLNRFMCAQLPNQVLESISIIDTPGILSGAKQRVSRGYDFPAVLRWFAERVDLIILLFDAHKLEISDEFSEAIGALRGHEDKIRVVLNKADMVETQQLMRVYGALMWALGKVVGTPEVLRVYIGSFWSQPLLVPDNRRLFELEEQDLFRDIQGLPRHAALRKLNDLVKRARLVRVHAYIISYLKKEMPTVFGKENKKKQLILKLPVIFAKIQLEHHISPGDFPDCQKMQELLMAHDFTKFHSLKPKLLEALDDMLAQDIAKLMPLLRQEELESVEAGVAGGAFEGTRMGPFVERGPDEAIEDGEEGSEDDAEWVVTKDKSKYDEIFYNLAPADGKLSGSKAKTWMVGTKLPNSVLGRIWKLSDVDRDGMLDDEEFALASHLIEAKLEGHGLPTNLPRRLVPPSKRRQKGSAE”, the “soluble on expression in E. coli” value was “soluble”. For “MNQLIFDFAAHDYPSFDKFLGTENAELVYVLRHKHGQFIYVWGEEGAGKSHLLQAWVAQALEAGKNAAYIDAASMPLTDAAFEAEYLAVDQVEKLGNEEQALLFSIFNRFRNSGKGFLLLGSEYTPQQLVIREDLRTRMAYCLVYEVKPLTDQEKIDALASMAAARQVTVDSEIFEYLLKHWRRDMDSLMMMLDTLDNYAVTMGKRITLPLLRQLLKQQETQ”, the “soluble on expression in E. coli” value was “not soluble”. With “MAEKMQAIMKTKPAYGAELVEVDVPKPGPGEVLIKVLATSICGTDLHIYEWNEWAQSRIKPPQIMGHEVAGEVVEVGPGVEDLQVGDYISVETHIVCGKCYACKHNRYHVCQNTKIFGVDMDGVFAHYAIVPAKNAWKNPKDMPPEYAALQEPLGNAVDTVLAGPIAGRSTLITGAGPLGLLGIAVAKASGAYPVIVSEPSEFRRKLAKKVGADYVVNPFEEDPVKFVMDITDGAGVEVFLEFSGAPKALEQGLKAVTPGGRVSLLGLFPREVTIDFNNLIIFKALEVHGITGRHLWETWYTVSSLIQSGKLNLDPIITHKYKGFDKFEEAFELMRAGKTGKVVFFPHKG” the “soluble on expression in E. coli” value was “soluble”. For “MFISVVIPTYDRQPILEKCLRALEAQQLSASTVINEYEIVLVDDGSTDGTLDWLATHKEEFPHVRWFEQDHAGPAAARNLGVEKARGDIIIFIDSDLVVLDNFLQAHADALLQGQEKLGSDRFFTYGAVINTCNFDNPTAEPYKITDFSAAFFATGNVAIPKHWLEQAGLFDTGFQLYGWEDLELGVRLKNLGLQLIKCPAAVGYHWHPPFNLEQVPNLIEKEIQRGRMGVLFYKKHPTWEVRMMIQMTWLHRLLWGILSLNGALNENTMAPLLQWLIKSGKPQLALEIARIFLNWYNVKGVYQAYSQMQKVSLEHHHHHH”, the “soluble on expression in E. coli” value was “soluble”. In the case of “MGSDKIHHHHHHMGIYMRDDILDIITLTTDFGTNEGYVGAMKGRILNILKKYNKDAKIIDISHEIKPFNIYHGAYVLLTAIPYFPPSVHVAVIDPTVGSERKSIVIETKSGYYLVGPDNGLFTYVAEKLGIKRIIKIDEERYKPSSTFHGRDVYAVVGAEILINNGYDGEELDEMVKIDETKKRVIHIDRFGNIITNIKKDEVTFKYYDTIMIKIRHKNGIEKIIKCKFVKSYFEEKNNFICLINSEGFLEISKFMDNASKLLNVDYLDEIEIIY”, the “soluble on expression in E. coli” value was “not soluble”.
